Measured values as given in the RNAGym collection of RNA variant scans (doi:10.1073/pnas.2313332121).

B1: TPR t1 (parent)
chain: GACCAAUCUGCCCUCAGAGCUCGAGAACAUCUUCGGAUGCAGAGGAGGCAGGCUUCGGUGGCGCGAUAGCGCCAACGUCCUCAACCUCCAAUGCAUCCCACCACAUGAUGAUGCCUGAAGAGCCUUGGUUUUUUG

Variants of: B1
Experiment: polymerase ribozyme fitness, log enrichment relative to wild type (log ratio); higher = more active; in vitro selection for triplet polymerase activity
Method in brief: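 Genotype fitness is the logarithm of its enrichment divided by wild-type enrichment, using inverse-variance-weighted averages of replicates. That logarithm is base 2. Enrichment was measured by Illumina sequencing of input and output libraries from one triplicate in vitro selection round, with frozen incubation at −7 °C, on PCR-built, transcribed mutant libraries of each subunit of a heterodimeric triplet polymerase ribozyme, retaining genotypes with ≥10 input reads and ≥1 read per output.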
With C88G C97A C104U the “polymerase ribozyme fitness (log ratio)” value was -5.23.
In the case of A90G C104U, the “polymerase ribozyme fitness (log ratio)” value is reported as -0.0421.
For C86U U130C, the “polymerase ribozyme fitness (log ratio)” value was 0.0697.
With A91U C102U the “polymerase ribozyme fitness (log ratio)” value was -4.75.
In the case of A83U G120U U129C, the “polymerase ribozyme fitness (log ratio)” value is reported as -1.36.
With C82U U87A the “polymerase ribozyme fitness (log ratio)” value was -0.441.
For A84C C94G U96C C124U, the “polymerase ribozyme fitness (log ratio)” value was -0.869.
With C88A C123U G127U U131G the “polymerase ribozyme fitness (log ratio)” value was -0.279.
With C86A G93U C115U the “polymerase ribozyme fitness (log ratio)” value was -4.53.
In the case of A83C C104A, the “polymerase ribozyme fitness (log ratio)” value is reported as -1.32.
For A91G C115U, the “polymerase ribozyme fitness (log ratio)” value was -1.36.
In the case of A91C A103C, the “polymerase ribozyme fitness (log ratio)” value is reported as -7.08.
In the case of A83C C86G, the “polymerase ribozyme fitness (log ratio)” value is reported as -1.46.
For C85G G127C, the “polymerase ribozyme fitness (log ratio)” value was -2.56.
With G93A C99U the “polymerase ribozyme fitness (log ratio)” value was -4.67.
With C82A C115A the “polymerase ribozyme fitness (log ratio)” value was -1.19.
In the case of C88U U106A C114G, the “polymerase ribozyme fitness (log ratio)” value is reported as -5.05.
For A84G U130G, the “polymerase ribozyme fitness (log ratio)” value was -1.3.
With C86A G110A C123G the “polymerase ribozyme fitness (log ratio)” value was -1.37.
In the case of A84U C124A, the “polymerase ribozyme fitness (log ratio)” value is reported as 1.73.
For C85G U106A, the “polymerase ribozyme fitness (log ratio)” value was -1.05.
With A84C C98A C114G U116C the “polymerase ribozyme fitness (log ratio)” value was -4.74.
In the case of A84G C98U A100U, the “polymerase ribozyme fitness (log ratio)” value is reported as -4.01.
In the case of C89U G128C, the “polymerase ribozyme fitness (log ratio)” value is reported as -3.21.
For C85G C123A, the “polymerase ribozyme fitness (log ratio)” value was -0.897.
With C86A G135U the “polymerase ribozyme fitness (log ratio)” value was -1.3.
With U81G U129A the “polymerase ribozyme fitness (log ratio)” value was -5.4.
For C85U U112C, the “polymerase ribozyme fitness (log ratio)” value was 1.15.
With A90U A100U the “polymerase ribozyme fitness (log ratio)” value was -2.77.
With C82G C99A C101U A119G the “polymerase ribozyme fitness (log ratio)” value was -6.25.
For C89A G120C, the “polymerase ribozyme fitness (log ratio)” value was -0.369.
For C82G U112G, the “polymerase ribozyme fitness (log ratio)” value was -2.98.
In the case of A90U U96C C115U, the “polymerase ribozyme fitness (log ratio)” value is reported as -1.64.
With U87G U130G the “polymerase ribozyme fitness (log ratio)” value was -0.21.
In the case of A90G G113U A118C, the “polymerase ribozyme fitness (log ratio)” value is reported as -4.53.
With C82U G93C G117U the “polymerase ribozyme fitness (log ratio)” value was -2.53.
For U92G, the “polymerase ribozyme fitness (log ratio)” value was -2.38.
For U92A, the “polymerase ribozyme fitness (log ratio)” value was -2.8.
For U92C, the “polymerase ribozyme fitness (log ratio)” value was -0.847.
For A90U U106A, the “polymerase ribozyme fitness (log ratio)” value was -1.76.
In the case of A90U U106G, the “polymerase ribozyme fitness (log ratio)” value is reported as -4.63.
For C85A U96A, the “polymerase ribozyme fitness (log ratio)” value was -2.43.
With C88U A118U the “polymerase ribozyme fitness (log ratio)” value was 0.45.
For U87A A105U, the “polymerase ribozyme fitness (log ratio)” value was -1.78.
For C86U G120A, the “polymerase ribozyme fitness (log ratio)” value was 0.277.
In the case of A90C U106A, the “polymerase ribozyme fitness (log ratio)” value is reported as -1.42.
With C86A U112C the “polymerase ribozyme fitness (log ratio)” value was -0.51.
For U92A G117U, the “polymerase ribozyme fitness (log ratio)” value was -4.95.
In the case of U87G G117A, the “polymerase ribozyme fitness (log ratio)” value is reported as -1.13.
With U87C C115U the “polymerase ribozyme fitness (log ratio)” value was -0.297.
For C82G U109G, the “polymerase ribozyme fitness (log ratio)” value was -5.33.
For C89U U126C, the “polymerase ribozyme fitness (log ratio)” value was -1.11.
With C88G G110A the “polymerase ribozyme fitness (log ratio)” value was -1.15.
For G93U A111G, the “polymerase ribozyme fitness (log ratio)” value was -0.352.
For A90C G107C G110C, the “polymerase ribozyme fitness (log ratio)” value was -6.73.
With C88U G113U the “polymerase ribozyme fitness (log ratio)” value was -3.09.
For C88U G113C, the “polymerase ribozyme fitness (log ratio)” value was -2.8.
In the case of U87G A103C U106C C124G, the “polymerase ribozyme fitness (log ratio)” value is reported as -1.08.
In the case of C86U C94A U106G, the “polymerase ribozyme fitness (log ratio)” value is reported as -3.23.
With C85U U132A the “polymerase ribozyme fitness (log ratio)” value was -1.56.
For A91G C98U, the “polymerase ribozyme fitness (log ratio)” value was -1.4.
For U87A C89G, the “polymerase ribozyme fitness (log ratio)” value was -2.18.
For U92A U129A, the “polymerase ribozyme fitness (log ratio)” value was -4.29.
With U92A U129G the “polymerase ribozyme fitness (log ratio)” value was -4.28.
With G93A A95U C102A the “polymerase ribozyme fitness (log ratio)” value was -4.21.
With A84U C114U the “polymerase ribozyme fitness (log ratio)” value was -2.03.
In the case of A83U G93C C104U U116G G122A, the “polymerase ribozyme fitness (log ratio)” value is reported as -4.03.
For G93U G135C, the “polymerase ribozyme fitness (log ratio)” value was -0.696.
With C88A G120U the “polymerase ribozyme fitness (log ratio)” value was -0.146.
For C82G A83C C115G G122A, the “polymerase ribozyme fitness (log ratio)” value was -2.67.
For A84U G128C, the “polymerase ribozyme fitness (log ratio)” value was -2.56.
With A83U G117U the “polymerase ribozyme fitness (log ratio)” value was -1.02.
In the case of A83C G135U, the “polymerase ribozyme fitness (log ratio)” value is reported as -0.881.
For A91G A100C, the “polymerase ribozyme fitness (log ratio)” value was -2.5.
With C88U C89A C115U G117C U126A the “polymerase ribozyme fitness (log ratio)” value was -3.5.
With C82G C102A G120A G122U the “polymerase ribozyme fitness (log ratio)” value was -2.05.
With C82A U112A C114G the “polymerase ribozyme fitness (log ratio)” value was -0.66.
In the case of U92A C115U, the “polymerase ribozyme fitness (log ratio)” value is reported as -3.78.
In the case of A90C C101A, the “polymerase ribozyme fitness (log ratio)” value is reported as -2.32.
In the case of C88A C104A A121U U130C, the “polymerase ribozyme fitness (log ratio)” value is reported as 0.158.
With A84C G120U the “polymerase ribozyme fitness (log ratio)” value was 1.51.
For G93A U112A, the “polymerase ribozyme fitness (log ratio)” value was 0.918.
In the case of C82G C86U, the “polymerase ribozyme fitness (log ratio)” value is reported as -0.172.
